Test results published in IntAct's records for PubMed 24907116.

B1: Mineralocorticoid receptor (Homo sapiens), P08235 (parent)
chain: METKGYHSLPEGLDMERRWGQVSQAVERSSLGPTERTDENNYMEIVNVSCVSGAIPNNSTQGSSKEKQELLPCLQQDNNRPGILTSDIKTELESKELSATVAESMGLYMDSVRDADYSYEQQNQQGSMSPAKIYQNVEQLVKFYKGNGHRPSTLSCVNTPLRSFMSDSGSSVNGGVMRAVVKSPIMCHEKSPSVCSPLNMTSSVCSPAGINSVSSTTASFGSFPVHSPITQGTPLTCSPNVENRGSRSHSPAHASNVGSPLSSPLSSMKSSISSPPSHCSVKSPVSSPNNVTLRSSVSSPANINNSRCSVSSPSNTNNRSTLSSPAASTVGSICSPVNNAFSYTASGTSAGSSTLRDVVPSPDTQEKGAQEVPFPKTEEVESAISNGVTGQLNIVQYIKPEPDGAFSSSCLGGNSKINSDSSFSVPIKQESTKHSCSGTSFKGNPTVNPFPFMDGSYFSFMDDKDYYSLSGILGPPVPGFDGNCEGSGFPVGIKQEPDDGSYYPEASIPSSAIVGVNSGGQSFHYRIGAQGTISLSRSARDQSFQHLSSFPPVNTLVESWKSHGDLSSRRSDGYPVLEYIPENVSSSTLRSVSTGSSRPSKICLVCGDEASGCHYGVVTCGSCKVFFKRAVEGQHNYLCAGRNDCIIDKIRRKNCPACRLQKCLQAGMNLGARKSKKLGKLKGIHEEQPQQQQPPPPPPPPQSPEEGTTYIAPAKEPSVNTALVPQLSTISRALTPSPVMVLENIEPEIVYAGYDSSKPDTAENLLSTLNRLAGKQMIQVVKWAKVLPGFKNLPLEDQITLIQYSWMCLSSFALSWRSYKHTNSQFLYFAPDLVFNEEKMHQSAMYELCQGMHQISLQFVRLQLTFEEYTIMKVLLLLSTIPKDGLKSQAAFEEMRTNYIKELRKMVTKCPNNSGQSWQRFYQLTKLLDSMHDLVSDLLEFCFYTFRESHALKVEFPAMLVEIISDQLPKVESGNAKPLYFHRK
partner: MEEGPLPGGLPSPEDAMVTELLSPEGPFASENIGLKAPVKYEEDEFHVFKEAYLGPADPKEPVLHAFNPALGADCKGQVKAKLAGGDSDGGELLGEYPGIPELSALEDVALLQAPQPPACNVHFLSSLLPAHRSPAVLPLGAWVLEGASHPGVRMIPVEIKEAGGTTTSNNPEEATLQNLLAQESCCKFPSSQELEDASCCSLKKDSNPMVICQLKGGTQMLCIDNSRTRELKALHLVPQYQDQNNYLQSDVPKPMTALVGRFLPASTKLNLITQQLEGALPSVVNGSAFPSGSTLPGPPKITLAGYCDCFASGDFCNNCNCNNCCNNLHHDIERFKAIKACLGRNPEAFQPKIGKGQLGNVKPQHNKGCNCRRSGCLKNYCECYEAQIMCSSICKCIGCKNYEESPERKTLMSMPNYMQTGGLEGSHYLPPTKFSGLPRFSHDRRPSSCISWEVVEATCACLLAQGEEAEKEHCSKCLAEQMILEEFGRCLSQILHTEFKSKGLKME
B2: Mineralocorticoid receptor (Homo sapiens), P08235 (parent)
chain: B1 chain
partner: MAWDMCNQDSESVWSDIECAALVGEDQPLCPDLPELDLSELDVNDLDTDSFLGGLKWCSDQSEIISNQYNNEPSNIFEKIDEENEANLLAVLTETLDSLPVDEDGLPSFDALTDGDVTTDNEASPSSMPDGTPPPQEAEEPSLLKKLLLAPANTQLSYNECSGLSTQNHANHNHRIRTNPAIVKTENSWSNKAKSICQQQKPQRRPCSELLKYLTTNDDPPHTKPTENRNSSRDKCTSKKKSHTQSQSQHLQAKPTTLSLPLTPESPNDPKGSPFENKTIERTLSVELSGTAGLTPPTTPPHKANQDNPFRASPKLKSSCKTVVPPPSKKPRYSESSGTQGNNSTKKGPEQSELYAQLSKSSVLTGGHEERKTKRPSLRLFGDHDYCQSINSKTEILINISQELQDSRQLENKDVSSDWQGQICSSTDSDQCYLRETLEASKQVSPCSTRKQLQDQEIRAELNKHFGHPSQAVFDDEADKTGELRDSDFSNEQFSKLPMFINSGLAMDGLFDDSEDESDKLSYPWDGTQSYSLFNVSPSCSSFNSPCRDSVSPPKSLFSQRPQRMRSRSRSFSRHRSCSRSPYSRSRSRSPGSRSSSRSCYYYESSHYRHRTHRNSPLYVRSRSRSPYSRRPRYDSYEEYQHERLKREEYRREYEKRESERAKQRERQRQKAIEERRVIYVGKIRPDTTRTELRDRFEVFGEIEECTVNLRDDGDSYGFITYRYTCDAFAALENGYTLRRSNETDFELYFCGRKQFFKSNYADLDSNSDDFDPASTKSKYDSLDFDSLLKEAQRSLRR
B3: Tesmin (Homo sapiens), Q9Y4I5 (parent)
chain: B1 partner

Variants of: B1
Details: with mtl5_human TESMIN

Variant	effect of a mutation on the interaction
E962A	decreasing interaction strength

Variants of: B2
Details: with prgc1_human PPARGC1A

Variant	effect of a mutation on the interaction
E962A	disrupting interaction strength

Variants of: B2
Details: with prgc1_human PPARGC1A
Remark: another data set of the same source

Variant	effect of a mutation on the interaction
E962A	decreasing interaction strength

Variants of: B3
Details: with mcr_human NR3C2, P08235

Variant	effect of a mutation on the interaction
MEEGPLPGGLPSPEDAMVTELLSPEGPFASENIGLKAPVKYEEDEFHVFKEAYLGPADPKEPVLHAFNPALGADCKGQVKAKLAGGDSDGGELLGEYPGIPELSALEDVALLQAPQPPACNVHFLSSAAPAHRSPAVLPLGAWVLEGASHPGVRMIPVEIKEAGGTTTSNNPEEATLQNAAAQESCCKFPSSQELEDASCCSLKKDSNPMVICQLKGGTQMLCIDNSRTRELKALHLVPQYQDQNNYLQSDVPKPMTALVGRFLPASTKLNLITQQLEGALPSVVNGSAFPSGSTLPGPPKITLAGYCDCFASGDFCNNCNCNNCCNNLHHDIERFKAIKACLGRNPEAFQPKIGKGQLGNVKPQHNKGCNCRRSGCLKNYCECYEAQIMCSSICKCIGCKNYEESPERKTLMSMPNYMQTGGLEGSHYLPPTKFSGLPRFSHDRRPSSCISWEVVEATCACLLAQGEEAEKEHCSKCLAEQMILEEFGRCLSQILHTEFKSKGLKME [L128A;L129A;L180A;L181A]	disrupting interaction strength
MEEGPLPGGLPSPEDAMVTELLSPEGPFASENIGLKAPVKYEEDEFHVFKEAYLGPADPKEPVLHAFNPALGADCKGQVKAKLAGGDSDGGELLGEYPGIPELSALEDVALLQAPQPPACNVHFLSSLLPAHRSPAVLPLGAWVLEGASHPGVRMIPVEIKEAGGTTTSNNPEEATLQNAAAQESCCKFPSSQELEDASCCSLKKDSNPMVICQLKGGTQMLCIDNSRTRELKALHLVPQYQDQNNYLQSDVPKPMTALVGRFLPASTKLNLITQQLEGALPSVVNGSAFPSGSTLPGPPKITLAGYCDCFASGDFCNNCNCNNCCNNLHHDIERFKAIKACLGRNPEAFQPKIGKGQLGNVKPQHNKGCNCRRSGCLKNYCECYEAQIMCSSICKCIGCKNYEESPERKTLMSMPNYMQTGGLEGSHYLPPTKFSGLPRFSHDRRPSSCISWEVVEATCACLLAQGEEAEKEHCSKCLAEQMILEEFGRCLSQILHTEFKSKGLKME [L180A;L181A]	with no effect
MEEGPLPGGLPSPEDAMVTELLSPEGPFASENIGLKAPVKYEEDEFHVFKEAYLGPADPKEPVLHAFNPALGADCKGQVKAKLAGGDSDGGELLGEYPGIPELSALEDVALLQAPQPPACNVHFLSSAAPAHRSPAVLPLGAWVLEGASHPGVRMIPVEIKEAGGTTTSNNPEEATLQNLLAQESCCKFPSSQELEDASCCSLKKDSNPMVICQLKGGTQMLCIDNSRTRELKALHLVPQYQDQNNYLQSDVPKPMTALVGRFLPASTKLNLITQQLEGALPSVVNGSAFPSGSTLPGPPKITLAGYCDCFASGDFCNNCNCNNCCNNLHHDIERFKAIKACLGRNPEAFQPKIGKGQLGNVKPQHNKGCNCRRSGCLKNYCECYEAQIMCSSICKCIGCKNYEESPERKTLMSMPNYMQTGGLEGSHYLPPTKFSGLPRFSHDRRPSSCISWEVVEATCACLLAQGEEAEKEHCSKCLAEQMILEEFGRCLSQILHTEFKSKGLKME [L128A;L129A]	with no effect
